Changes are numbered by the printed parent chain. Names may count otherwise.
T1: TNFR1 (Homo sapiens, UniProt P19438)
T1 chain: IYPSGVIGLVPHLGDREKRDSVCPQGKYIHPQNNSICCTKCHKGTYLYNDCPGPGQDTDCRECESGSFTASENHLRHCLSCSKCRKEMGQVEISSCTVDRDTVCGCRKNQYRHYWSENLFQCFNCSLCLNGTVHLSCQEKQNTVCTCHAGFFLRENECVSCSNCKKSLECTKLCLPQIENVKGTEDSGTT

B1: E62G (designed binder)
chain: SMEEEVEKAAKEYEKKKKEAIEKHLEKLKAKDKEAAERFLKELEEAAKEYAKDEAKTMSEEGAKRRAKKYKEKVLLSELSEEEQKEIKEAEEKLVRTILKYVEEAAK
B2: E72L (designed binder)
chain: B1 chain with G62E, E72L
B3: E83T (designed binder)
chain: B1 chain with G62E, E83T
B4: K71Y (designed binder)
chain: B1 chain with G62E, K71Y
B5: K41V (designed binder)
chain: B1 chain with K41V, G62E
B6: E61F (designed binder)
chain: B1 chain with E61F, G62E
B7: S80A (designed binder)
chain: B1 chain with G62E, S80A
B8: A106Q (designed binder)
chain: B1 chain with G62E, A106Q
B9: A35W (designed binder)
chain: B1 chain with A35W, G62E
B10: A36S (designed binder)
chain: B1 chain with A36S, G62E
B11: R38N (designed binder)
chain: B1 chain with R38N, G62E
B12: D53V (designed binder)
chain: B1 chain with D53V, G62E
B13: A46V (designed binder)
chain: B1 chain with A46V, G62E
B14: K41I (designed binder)
chain: B1 chain with K41I, G62E
B15: A46C (designed binder)
chain: B1 chain with A46C, G62E
B16: S77W (designed binder)
chain: B1 chain with G62E, S77W
B17: L25V (designed binder)
chain: B1 chain with L25V, G62E
B18: K88W (designed binder)
chain: B1 chain with G62E, K88W
B19: R66E (designed binder)
chain: B1 chain with G62E, R66E
B20: K88V (designed binder)
chain: B1 chain with G62E, K88V
B21: E22M (designed binder)
chain: B1 chain with E22M, G62E
B22: E60G (designed binder)
chain: B1 chain with E60G, G62E
B23: K64T (designed binder)
chain: B1 chain with G62E, K64T
B24: E34L (designed binder)
chain: B1 chain with E34L, G62E
B25: E61C (designed binder)
chain: B1 chain with E61C, G62E
B26: A90Q (designed binder)
chain: B1 chain with G62E, A90Q
B27: A36F (designed binder)
chain: B1 chain with A36F, G62E
B28: M58L (designed binder)
chain: B1 chain with M58L, G62E
B29: E54T (designed binder)
chain: B1 chain with E54T, G62E
B30: I87M (designed binder)
chain: B1 chain with G62E, I87M
B31: Y101D (designed binder)
chain: B1 chain with G62E, Y101D
B32: E61R (designed binder)
chain: B1 chain with E61R, G62E
B33: L28K (designed binder)
chain: B1 chain with L28K, G62E
B34: K15S (designed binder)
chain: B1 chain with K15S, G62E
B35: K88E (designed binder)
chain: B1 chain with G62E, K88E
B36: V74E (designed binder)
chain: B1 chain with G62E, V74E
B37: E19V (designed binder)
chain: B1 chain with E19V, G62E
B38: L43R (designed binder)
chain: B1 chain with L43R, G62E
B39: L40E (designed binder)
chain: B1 chain with L40E, G62E
B40: S1Q (designed binder)
chain: B1 chain with S1Q, G62E
B41: K15I (designed binder)
chain: B1 chain with K15I, G62E
B42: M2A (designed binder)
chain: B1 chain with M2A, G62E
B43: E4D (designed binder)
chain: B1 chain with E4D, G62E

Molecular target: T1, TNFR1
Assay: yeast display SC50

| Binder | apparent Kd (screen) |
| --- | --- |
| B1 | 2.25 nM |
| B2 | 0.446 nM |
| B3 | 0.49 nM |
| B4 | 1.05 nM |
| B5 | 0.446 nM |
| B6 | 0.718 nM |
| B7 | 1.16 nM |
| B8 | 2.05 nM |
| B9 | 1.86 nM |
| B10 | 1.05 nM |
| B11 | 2.48 nM |
| B12 | 12.5 nM |
| B13 | 2.48 nM |
| B14 | 0.539 nM |
| B15 | 1.86 nM |
| B16 | 1.05 nM |
| B17 | 1.27 nM |
| B18 | 0.49 nM |
| B19 | 18.3 nM |
| B20 | 0.79 nM |
| B21 | 0.539 nM |
| B22 | 1.54 nM |

| Binder | apparent Kd (screen) |
| --- | --- |
| B23 | 1.4 nM |
| B24 | 0.446 nM |
| B25 | 1.86 nM |
| B26 | 0.49 nM |
| B27 | 1.27 nM |
| B28 | 2.73 nM |
| B29 | 12.5 nM |
| B30 | 10.4 nM |
| B31 | 0.446 nM |
| B32 | 2.48 nM |
| B33 | 1.54 nM |
| B34 | 0.653 nM |
| B35 | 0.49 nM |
| B36 | 0.304 nM |
| B37 | 0.446 nM |
| B38 | 13.8 nM |
| B39 | 0.49 nM |
| B40 | 0.539 nM |
| B41 | 0.869 nM |
| B42 | 0.49 nM |
| B43 | 0.446 nM |

— publication PMC12416549 (2024)
